Target: the molecule itself
Assay: native gel or EMSA; native-PAGE of 2.5 mg/mL bovine GDH without EGCG or trypsin

B1: bovine glutamate dehydrogenase (enzyme)
chain: not shown
notes: Glutamate dehydrogenase 1, bovine, commercial preparation; Used as a substitute for wild-type human GDH in the gel experiments; also called Bovine GDH; Bo.GDH
- stoichiometry N: 6

From article PMC12196458, “An Alternative Mechanism of Glutamate Dehydrogenase Inhibition by EGCG: Promotion of Protein Degradation” (Pharmaceuticals, 2025)
